experiment: soluble on expression in E. coli; label from the status in PepcDB or PDB records

Sequence | soluble on expression in E. coli
MASKASGGSTRNGRDSISKRLGVKRYDGQFVKAGNIIVRQRGTRIYPGKNVGMGSDYTLFALKDGYVYFETRRKKKFVSVLSPEEWEKVMAQKNGKVH | not soluble
MASKIEPGSPQPIYLDVQATAPMDPRVVDAMLPYMINDFGNPHSRTHSYGWKAEEGVEQAREHVANLIKADPRDIIFTSGATESNNLAIKGVAKFRKQSGKNHIITLQTEHKCVLDSCRYLENEGFKVTYLPVDKGGMVDMEQLTQSITAETCLVSIMFVNNEIGVMQPIKQIGELCRSKGVYFHTDAAQATGKVPIDVNEMKIDLMSISAHKIYGPKGAGALYVRRRPRVRIEAQMSGGGQERGLRSGTVAAPLCIGLGEAAKIADKEMAMDKAHVERLSQMLINGISDKLPHIIRNGDARHAYPGCVNLSFAYVEGESLLMALKSIALSSGSACTSASLEPSYVLRAIGSEEDLAHSSIRFGLGRFTTDEEVKHTIDLCIRETNRLRDLSPLWEMVQEGIDLKSIQWTQH | not soluble
MASKRIIRMSDLLHTTPVFNRGYRFQWEQAQQSYVILYPEGLVRLNESATLILKQIDGKLTVHDIIQNLSAQFPDATGLDQDIVEFLKQAESRQWICLQ | not soluble
MASLLNARTAVITGGAQGLGLAIGQRFVAEGARVVLGDVNLEATEVAAKRLGGDDVALAVRCDVTQADDVDILIRTAVERFGGLDVMVNNAGITRDATMRTMTEEQFDQVIAVHLKGTWNGTRLAAAIMRERKRGAIVNMSSVSGKVGMVGQTNYSAAKAGIVGMTKAAAKELAHLGIRVNAIAPGLIRSAMTEAMPQRIWDQKLAEVPMGRAGEPSEVASVAVFLASDLSSYMTGTVLDVTGGRFI | soluble
MASMAAELRPSDGGSSLHMLDSLLMMGLSSGGGVGGGGSSQSQILDSAGAAELAALLLPQHSNDPLHLMSTGDAALGLAGPMAAAEHHQHHPHHQHHSVPATAGFPSQTPPPPLFSNATAGAAPATRVRAAGSCGSGGVAGGTTSHSSEDGVFHSADPHHHHQQHLQQPQPQQQQQQQQQPQHQQQQQQQQQQQPQQPQFHHHQPQQHQAQQAVAATAPAAAADHLFLPPAAAGAAGQQQAGWGAATGAHLFHSDAPNRPNGPKTPTNRNGYAMKPPPPAAAAAVMSGHAMAASGVVAGRGGGGGGCDAEEDELTFAAAAAAEVSSDDEVMGGRGGAVMGRAAVGGFRTPAPAPASAGAAVNVAAAAPAAPAGTWVPKGKPAVEVSAWAPAPAAPVAAAAAAAVAVSPTVAAFAAAPVVEAVALVRSQQRQEQEHQLVQVAAAEQQDQQQAKRPVRSSRRRAQESQQAAAEAQQAAQQAAAAQQQQQHTGSGNIVGDKQGKPQGGLQQGRPVATQPSPPPPAVATAAAAAAATAPVATAPVATVATAATADTMPQRLTAVQQHEAYPAVVRGTLDVRKACLPRFPLVAREQAEAELQSVATAALQQAAAAPGASAAVTAAAAAAAAAATAAGEGKAGEGKAATARRGGRGAAEAEAAAALPAVGASGNPGLDEAMGAYVRVAALYGDEAAAAVAECESLMADFDNKLQLGNLATTFAAAASPTAAASGRARGGARSGGVGGGGTKRVASGANASGANSSGMSGGGGGDSAGAEAAAGDEMEWAPGATSVDTATGGADDEDGEEEEGQQPGGAAAAAAVAAAGGEASQLAASIAATYGSQLVQVAASLAQRPKVGKLPPAATQLLKGWWDDNFVWPYPSEEDKKQLGEAAALNNTQINNWFINQRKRHWHKHFPNRRPPSTREEAERLLRAAGAI | not soluble
MASNVSLTGLAHDLKQRAENHPPIRIGLIGCGEMGTDLLSSIAHMDGITVAAVATRTPSRIFDAARLAYGEEGHVREVENASALTRTIEKGLIAATNDIDLVLRHEQIDIIVDATGYPEAGAEIGFKALENNKNLVMMNVEADVTIGAYLKHEAEKQGLIYTLGAGDEPTSCMELIEFVSALGHKI | not soluble
MASSAVSLQSISMTTLNNLSCNQQFHRSSLLGSSKSFQNLGISSNGSDFSYPSSFTAKKNLTASRALSQNGNIENPRPSKVQELSVYEINELDRHSPKILKNAFSLMFGLGDLVPFTNKLYTGDLKKRVGITAGLCVVIEHVPEKKGERFEATYSFYFGDYGHLSVQGPYLTYEDSFLAITGGAGIFEGAYGQVKLQQLVYPTKLFYTFYLKGLANDLPLELTGTPVPPSKDIEPAPEAKALEPSGVISNYTN | soluble
MASSLNEDPEGSRITYVKGDLFACPKTDSLAHCISEDCRMGAGIAVLFKKKFGGVQELLNQQKKSGEVAVLKRDGRYIYYLITKKRASHKPTYENLQKSLEAMKSHCLKNGVTDLSMPRIGCGLDRLQWENVSAMIEEVFEATDIKITVYTL | soluble
MASYAELFDIGEDFAAFVGHGLATEQGAVARFRQKLESNGLPSALTERLQRIERRYRLLVAGEMWCPDCQINLAALDFAQRLQPNIELAIISKGRAEDDLRQRLALERIAIPLVLVLDEEFNLLGRFVERPQAVLDGGPQALAAYKAGDYLEHAIGDVLAIIEGAAR | soluble
MASYSDIVDSVRKCQFSPLYLLAGEEPFYIDELATLLETHVVPVDEWDFNRVILYGDKTSVADIANEARRFPMMGRRQLIVVREAQLVDNIDLLEAHYGTFPDTTILVIAYKKKPDKRKAFYTKAEKFGKVFVSETIPDYKMPDFILSAAAGKKLSVSPEVAYMLADYLGNDLEKLMNELDKLILITQDSRGVVTSEIVEQHIGVSKSFNNFELLRAIVNRETGKTFRIAHYFARNEKEHPIQATLPVLFNYFSNLMIVCYLPQKKPDAIMKALSIRNFQVRDYMTGLKMYSTRKVFDIIHEIRMTDARSKGVDTTGTFAGSGDLLRELLHFIFH | not soluble
MASYSQFLTKAQEDELRSIANAIVTPGKGILAADESTGSMDKRLNSIGLENTEENRRKYRQLLFTAGADLNKYISGVIMFHETFYQKTDDGKPFTALLQEQGIIPGIKVDKGVVPMAGTIGEGTTQGLDDLNARCAQYKKDGAQFAKWRCVHKISSTTPSVTALKEIASNLARYASICQQNGLVPIVEPEILPDGEHCLARGQKITETVLSYVYHALNEHHVFLEGTLLKPNMVTSGQSFTGEKPSNADIGLATVTALQRGVPSAVPGVVFLSGGQSEEDATLNLNAINQVSGKKPWALTFSYGRALQASCLAKWAGKDENIAAAQEVLLHRAQVNSLASVGKYTGDASADAAASQSLFVANHSY | soluble
MATAADSVYSIESPKAAKSLMLDVVHAGKRLVAVGDRGHILYSDDQGQTWVQAKVPTRQLLTAVYFVDDKRGWAVGHDAQVLASSDGGATWTRQFQDLKREAPLLDVWFKDTQTGYAVGAYGALLETSDGGQHWEDVSDRLDNEDQFHLNAIAQVKDSGLFIVGEQGSMFRSADDGQTWERLEGPYEGSLFGVIGTGQPATLLVYGLRGNLYRSTDFGSTWEQVELEHHHHHH | soluble
MATAATTASRSTTAGTSSTMGTPATTSAASRTTTTGTTTTMGQLIT | not soluble
MATADVKSTVPHMDMDRGGAFDFSNCIRNQAMCKMGGKAPKLTSTGTTIVAVAFKGGLVMGADSRATAGNIIADKHCEKVHKLTESIYACGAGTAADLDQVTKMLSGNLRLLELNTGRKARVITALRQAKQHLFNYQGYIGAYLLIGGVDPTGPHLYMCSANGTTMAFPFTAQGSGSYAAITILERDFKVDMTKDEAEKLVQRALEAGMHGDNASGNSLNLVIIEPSETVFKGPIVPEFCKRPEPNDLVYKFQAGATKVLKHKTYKYDVVESMDITH | not soluble
MATGQDRVVALVDMDCFFVQVEQRQNPHLRNKPCAVVQYKSWKGGGIIAVSYEARAFGVTRSMWADDAKKLCPDLLLAQVRESRGKANLTKYREASVEVMEIMSRFAVIERASIDEAYVDLTSAVQERLQKLQGQPISADLLPSTYIEGLPQGPTTAEETVQKEGMRKQGLFQWLDSLQIDNLTSPDLQLTVGAVIVEEMRAAIERETGFQCSAGISHNKVLAKLACGLNKPNRQTLVSHGSVPQLFSQMPIRKIRSLGGKLGASVIEILGIEYMGELTQFTESQLQSHFGEKNGSWLYAMCRGIEHDPVKPRQLPKTIGCSKNFPGKTALATREQVQWWLLQLAQELEERLTKDRNDNDRVATQLVVSIRVQGDKRLSSLRRCCALTRYDAHKMSHDAFTVIKNCNTSGIQTEWSPPLTMLFLCATKFSASAPSSSTDITSFLSSDPSSLPKVPVTSSEAKTQGSGPAVTATKKATTSLESFFQKAAERQKVKEASLSSLTAPTQAPMSNSPSKPSLPFQTSQSTGTEPFFKQKSLLLKQKQLNNSSVSSPQQNPWSNCKALPNSLPTEYPGCVPVCEGVSKLEESSKATPAEMDLAHNSQSMHASSASKSVLEVTQKATPNPSLLAAEDQVPCEKCGSLVPVWDMPEHMDYHFALELQKSFLQPHSSNPQVVSAVSHQGKRNPKSPLACTNKRPRPEGMQTLESFFKPLTH | soluble
MATIGLDRLYYAKITENENGEETYATPVPLAKAITAELSVELAEATLYADDGAAEVVKEFQSGTLTLGVADIGVDAAEVLTGATLDDNKVLISTSEDGGAPVAIGFRAKKANGKYRYFWLYRVKFGIPATNLQTKGDSITFSTPTIEGTVMRRNKPDGLEHHHHHH | soluble
MATKKCINGHQYDSSIYGDNCPFCPSSHSTRVLDDDTTTGKTQVLGGNMNAETDTIDLGKSGQNNPGGATVIRHVNPTGGTGMASDNRRLVGLLVSYDQNPMGEVYKIYEGRNVIGRAATSDIPIPGDSNMSSQHLLILYREAEGIFWAADQNSSNGTYINGTFVGDRVQLYTNDVIVLGATKMIFLAIPQ | not soluble
MATPASGALLQQMNLASQSLNYELSFISINKQGVESLRYRHARLDNRPLAQLLQMDGPRREVVQRGNEISYFEPGLEPFTLNGDYIVDSLPSLIYTDFKRLSPYYDFISVGRTRIADRLCEVIRVVARDGTRYSYIVWMDTESKLPMRVDLLDRDGETLEQFRVIAFNVNQDISSSMQTLAKANLPPLLSVPVGEKAKFSWTPTWLPQGFSEVSSSRRPLPTMDNMPIESRLYSDGLFSFSVNVNRATPSSTDQMLRTGRRTVSTSVRDNAEITIVGELPPQTAKRIAENIKFGAAQHHHHHH | soluble
MATSAEVSQRVLAYLVEQLGVDVSFLRHNDRDRRATRLVAEWPPRLNIPDPDPLRLIYFADADPVFALCEHAKEPLVFRPEPATEDYQRLIEEARGVPVTSAAAVPLVSGEITTGLLGFIKFGDRKWHEAELNALMTIATLFAQVQARVAAEARLRYLADHDDLEHHHHHH | not soluble
MATTLPVQRHPRSLFPEFSELFAAFPSFAGLRPTFDTRLMRLEDEMKEGRYEVRAELPGVDPDKDVDIMVRDGQLTIKAERTEQKDFDGRSEFAYGSFVRTVSLPVGADEDDIKATYDKGILTVSVAVSEGKPTEKHIQIRSTN | soluble
MATTSAQTSPTEFGAGLPEAEDHSESAEPQSVEAEVIDERYADVWEKIQHARTIDVHDDAEVRKQRNFFDDKQKFMTQVTQRAEPFLYYIVSQLEARNMPLELALLPIVESGYNPLAQANGPAGLWQMIPATGRNFGLTINSAYDGRKDALASTDAVLDYLQHLYNTLGNDWINAVAGYNSGELVIKAAIDRNKAKGKPTDFWSLNIPARQVQTVPKWLAFIQIIREPSHYNLKVMPIANRPFLERLPAPNGVEISQIANAAGLTKAEFKTYNPGYRQSVIPSKGKYQIALPIENIGHYQENQHKLYAQKRYDSQTYIVKSGDSLGTIAAKFDLSVKELKQANNLTSDRLKIGQELTLLTPMAANDNEPEPVKTKANTDKSSTKANASSTKATSSKSTDKPVAKAKTYKVKSGDSLDKIARKSKVKLADLMKWNQLNAKSIIKPGQELKISELEHHHHHH | not soluble
